Measurements published in patent US20170002079A1 (Amgen, published 2017).
Changes are numbered by the printed parent chain.

T1: human ST2 on primary human cells (human, UniProt Q01638 19-556)
T1 sequence: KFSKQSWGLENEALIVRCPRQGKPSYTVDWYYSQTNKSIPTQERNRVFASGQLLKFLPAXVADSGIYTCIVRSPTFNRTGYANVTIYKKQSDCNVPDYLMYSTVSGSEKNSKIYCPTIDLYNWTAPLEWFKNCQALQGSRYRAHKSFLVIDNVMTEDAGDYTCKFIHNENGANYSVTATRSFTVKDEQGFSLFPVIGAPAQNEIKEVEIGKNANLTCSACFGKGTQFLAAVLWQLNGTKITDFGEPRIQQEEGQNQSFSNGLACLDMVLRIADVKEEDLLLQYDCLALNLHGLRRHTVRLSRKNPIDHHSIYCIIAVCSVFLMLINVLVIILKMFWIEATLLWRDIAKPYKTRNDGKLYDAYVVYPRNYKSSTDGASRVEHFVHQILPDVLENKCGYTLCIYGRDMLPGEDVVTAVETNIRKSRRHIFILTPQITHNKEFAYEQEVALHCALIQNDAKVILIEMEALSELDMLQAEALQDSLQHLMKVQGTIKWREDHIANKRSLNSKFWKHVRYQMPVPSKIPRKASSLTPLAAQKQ

T2: cynomolgus monkey ST2 on cynomolgus monkey CD4+ T cells (cynomolgus monkey, UniProt Q01638 19-556 (human entry))
T2 chain: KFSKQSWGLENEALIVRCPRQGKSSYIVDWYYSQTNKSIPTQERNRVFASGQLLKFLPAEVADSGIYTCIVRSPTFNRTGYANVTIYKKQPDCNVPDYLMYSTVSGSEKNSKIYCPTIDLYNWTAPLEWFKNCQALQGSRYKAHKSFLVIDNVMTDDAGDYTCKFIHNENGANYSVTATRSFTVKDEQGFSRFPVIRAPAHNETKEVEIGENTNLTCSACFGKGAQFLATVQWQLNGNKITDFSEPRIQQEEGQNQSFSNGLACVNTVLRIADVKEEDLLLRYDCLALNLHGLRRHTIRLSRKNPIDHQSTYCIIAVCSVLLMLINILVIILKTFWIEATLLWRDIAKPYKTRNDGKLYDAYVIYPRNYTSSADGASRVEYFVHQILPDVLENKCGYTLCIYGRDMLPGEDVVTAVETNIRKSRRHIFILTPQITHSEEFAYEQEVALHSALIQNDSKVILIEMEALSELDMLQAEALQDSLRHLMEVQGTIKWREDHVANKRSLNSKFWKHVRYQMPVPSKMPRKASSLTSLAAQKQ

B1: Ab8 (antibody, human IgG2, kappa, V domains shown)
VH: EVQLVESGGGLVQPGGSLRLSCAASGFTFSSYDMYWVRQATGKGLEWVSAIDTVGDTYYPGSVKGRFTISRENAKNSLYLQMNSLRVGDTAVYYCARGGDYDYSYYGMDVWGQGTTVTVSS
VL: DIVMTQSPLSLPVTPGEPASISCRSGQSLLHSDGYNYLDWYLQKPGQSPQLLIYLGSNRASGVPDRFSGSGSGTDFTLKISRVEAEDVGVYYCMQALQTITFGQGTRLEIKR
B2: Ab6 (antibody, human IgG2, kappa, V domains shown)
VH: EVQLVESGGGLVQPGGSLRLSCAASGFTFSTYDMHWVRQTTGKGLEWVSAIDLAGDTYYPGSVKGRFTISREDAKNSLYLQMNSLRAGDTAVYYCARGGDGYNYDYYGIDVWGQGTTVTVSS
VL: DIVMTQSPLSLPVTPGEPASISCRSSQSLLHSDGYHYLDWYLQKPGQSPQLLIYLGSNRASGVPDRFSGSGSGTDFTLNISRVEAEDVGVYYCMQALQTLTFGGGTKVEIKR
B3: Ab3 (antibody, human IgG2, kappa, V domains shown)
VH: B2 VH with V37I, T40A, T41P, G44N
VL: B2 VL with S68T, N79K, T99I
notes: Fully human anti-ST2 antibody
B4: Ab7 (antibody, human IgG2, kappa, V domains shown)
VH: B2 VH
VL: B2 VL
B5: Ab4 (antibody, human IgG2, kappa, V domains shown)
VH: QVQLVQSGAEVKKPGASVKVSCEVSGFILTELSVNWVRQAPGKGLEWMGGFDPEDGKTIYAQKFQGRVTLTEDTSTDTAYMELSSLRSEDTAVYYCATWWDFHFDFWGQGTLVTVSS
VL: DFVMTQTPLSLSVTPGQPASISCKSSQSLLHSNGKTYLYWFLQKPGQPPQLLIYEVSNRFSGVPDRFSGSGSGTDFTLKISRVEAEDVGVYYCMQSIQLPLTFGGGTKVEIKR
notes: Fully human anti-ST2 antibody
B6: Ab2 (antibody, human IgG2, kappa, V domains shown)
VH: EVQLVQSGAEVKKPGESLKISCKGSGYSFTNYWIGWVRQMPGKGLEWMGIIYPGNSDTRFSPSFQGQVTISADKSITTAYLQWSSLKASDTAMYYCARHGTSSDYYGLDVWGQGTTVTVSS
VL: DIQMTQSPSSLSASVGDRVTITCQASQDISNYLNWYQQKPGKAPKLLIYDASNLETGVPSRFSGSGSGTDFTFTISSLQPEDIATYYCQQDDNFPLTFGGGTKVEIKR
notes: Fully human anti-ST2 antibody (XenoMouse); Full chains are the exemplary Ab2 chains
B7: Ab5 (antibody, human IgG2, kappa, V domains shown)
VH: EVQLVESGGGWVQPGGSLRLSCAASGFTFSSYDMYWVRQATGKGLEWVSGIDTVGDTYYPDSVKGRFTISRENAKNSVYLQMNTLRAGDTAVYYCVRGIYGDFYYYGLDVWGHGTTVTVSS
VL: B2 VL with H31Y, Y35N, H36N, Q50H, N79K, E86D
B8: Ab1 (antibody, human IgG2, kappa, V domains shown)
VH: QVQLVQSGAEVKKPGASVKVSCKVSGYTLTELSIHWVRQAPGKGLEWMGGFGPEDGETIYAQKFQGRVTMTEDTSTDTAYMELSSLRSEDTAVYYCTTEDSSGLFDYWGQGTLVTVSS
VL: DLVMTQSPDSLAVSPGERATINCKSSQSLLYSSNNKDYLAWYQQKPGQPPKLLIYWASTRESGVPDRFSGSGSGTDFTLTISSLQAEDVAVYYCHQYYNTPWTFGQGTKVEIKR
notes: Fully human anti-ST2 antibody (XenoMouse); Full chains are the exemplary Ab1 chains

These binders were tested against T1, human ST2 on primary human cells (assay: cell-based or functional assay).

Binder | IC50 (nM), inhibition of human IL-33-induced IL-5 production from human CD4+ T cells [nM]
B1 | 6.9

Target: T2, cynomolgus monkey ST2 on cynomolgus …
Experiment: cell-based or functional assay

Binder | IC-50, cynomolgus monkey CD4+ T cell IFNγ release assay (IL-33, IL-2 and IL-12p70 stimulation) [pM]
B1 | 158

Target: T1, human ST2 on primary human cells
Experiment: cell-based or functional assay
Remark: another data set of the same source

Binder | IC-50, human eosinophil IL-8 release assay (IL-33 and IL-3 stimulation) [pM]
B1 | 3120

Target: T1, human ST2 on primary human cells
Experiment: cell-based or functional assay
Remark: another data set of the same source

Binder | IC50 (read off the curve); % inhibition of IL-5 production by human CD4+ T cells stimulated with human IL-33 + IL-2 [µg/mL]
B1 | ~0.9
B2 | ~0.09
B3 | ~0.3
B4 | ~0.02
B5 | ~0.08
B6 | ~0.03
B7 | ~0.09

Each binder was assayed against ST2 (Example 4, pH-sensitive binding) (assay: SPR Biacore 4000; kd at pH 5.5 against kd at pH 7.4).
Experimental: (§1) The association (5 min) rates at pH 7.4 and dissociation (10 min) rates at pH 5.5 and 7.4 were monitored at a flow rate of 30 uL/min. The reference subtracted data was fit to a 1:1 model in Scrubber.

Binder | pH 7.4/pH 5.5 kd fold change [fold]
B3 | 2.9
B5 | 16.9
B6 | 8
B8 | 88.1

These binders were tested against ST2 (Example 4, pH-sensitive binding) (assay: SPR Biacore 4000; association at pH 7.4, dissociation at pH 5.5; estimated kd).
Experimental: as §1

Binder | koff [s⁻¹]
B3 | 7.91e-05
B5 | 0.0107
B6 | 0.000238
B8 | 0.0118

These binders were tested against ST2 (Example 4, pH-sensitive binding) (assay: SPR Biacore 4000; association at pH 7.4, dissociation at pH 7.4; estimated kd).
Experimental: as §1

Binder | koff [s⁻¹]
B3 | 2.73e-05
B5 | 0.000632
B6 | 2.98e-05
B8 | 0.000134
